Values quoted from earlier work in paper PMC9696605 (Viruses, 2022).

Target: Fyn-SH3 (Homo sapiens, UniProt P06241)
Settings: phosphorylated MBP

Chain of Fyn-SH3 (P06241 with tags, fused parts or gaps): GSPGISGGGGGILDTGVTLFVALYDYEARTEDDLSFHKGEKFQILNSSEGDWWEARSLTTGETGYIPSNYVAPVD

B1: phospho-MBP: phosphorylated myelin basic protein (protein, UniProt P02687 1-169, looked up)
Myelin basic protein: AAQKRPSQRSKYLASASTMDHARHGFLPRHRDTGILDSLGRFFGSDRGAPKRGSGKDGHHAARTTHYGSLPQKAQGHRPQDENPVVHFFKNIVTPRTPPPSQGKGRGLSLSRFSWGAEGQKPGFGYGGRASDYKSAHKGLKGHDAQGTLSKIFKLGGRDSRSGSPMARR
modifications: phosphorylated
notes: phosphorylated myelin basic protein
Effect of MBP phosphorylation on interaction with Fyn-SH3: phosphorylation weakens the interaction
